Test results from patent US20230013784A1 (JIANGSU HENGRUI MEDICINE, published 2023).

B1: mAb63 (antibody, V domains shown)
VH: EVQLQQSGPELVKPGASVKMSCKASGYTFTDFYMNWVRQSHGKSLEWIGDIFPKNGNTDYNRKFKDKATLTVDKSSNTVYMEFRSLTLEDSAIYFCARSGYGNYVFDYWGQGTIFTVSS
VL: DVQMTQTPSALSASLGDRVTISCRTSQDINIYLNWYQQKPDGTVKLLIYYRSGLLSGVPSRFSGSGSGTDYSLTISNLEPEDIATYFCQQGNTLPPTFGGGTKLEIK
notes: murine hybridoma antibody
B2: mAb103 (antibody, V domains shown)
VH: QIQLVQSGPELKKPGETVKISCKASGYTFTTYGVIWVKQAPGKGLKWMGWINTYSGVPTYADDFKGRFAFSLETSASTAFLQINNLKNEDTATYFCARKKTLTTVTPWFAYWGQGTLVTVSA
VL: DLVVTQSSSASFSLGASAKLTCTLSSQHSTYTIEWYQQQPLKPPKYVMELKKDGSHSTGDGIPDRFSGSSSGADRYLTISNIQPEDEAIYICGVGNTIKEQFVYVFGGGTKVTVL
notes: murine hybridoma antibody
B3: mAb47 (antibody, V domains shown)
VH: QIQLVQSGPELKKPGETVKISCKASGYTFTTYGMSWVKQAPGKGLKWMGWINTYSGVPTYADDFKGRFAFSLETSASTAYLQINNLKNEDTATYFCARRGNYGRWDFDVWGTGTTVTVSS
VL: EIVLTQSPALMAASPGEKVTITCSVSSTISSSNLHWYQQKSETSPKPWIYGTSNLASGVPVRFSGSGSGTSYSLTISSMEAEDAATYYCQQWSIYPLTFGAGTKLELK
notes: murine hybridoma antibody

target: T1, human CEA protein on the cell surface of MKN45 human gastric cancer cells (human, UniProt P06731 35-685); assay: FACS on MKN45; with/without 5 ug/ml sCEA as competitor
T1 construct: whole, on cells; GPI-anchored glycoprotein; also called CEACAM-5; CD66e
T1 sequence (looked up): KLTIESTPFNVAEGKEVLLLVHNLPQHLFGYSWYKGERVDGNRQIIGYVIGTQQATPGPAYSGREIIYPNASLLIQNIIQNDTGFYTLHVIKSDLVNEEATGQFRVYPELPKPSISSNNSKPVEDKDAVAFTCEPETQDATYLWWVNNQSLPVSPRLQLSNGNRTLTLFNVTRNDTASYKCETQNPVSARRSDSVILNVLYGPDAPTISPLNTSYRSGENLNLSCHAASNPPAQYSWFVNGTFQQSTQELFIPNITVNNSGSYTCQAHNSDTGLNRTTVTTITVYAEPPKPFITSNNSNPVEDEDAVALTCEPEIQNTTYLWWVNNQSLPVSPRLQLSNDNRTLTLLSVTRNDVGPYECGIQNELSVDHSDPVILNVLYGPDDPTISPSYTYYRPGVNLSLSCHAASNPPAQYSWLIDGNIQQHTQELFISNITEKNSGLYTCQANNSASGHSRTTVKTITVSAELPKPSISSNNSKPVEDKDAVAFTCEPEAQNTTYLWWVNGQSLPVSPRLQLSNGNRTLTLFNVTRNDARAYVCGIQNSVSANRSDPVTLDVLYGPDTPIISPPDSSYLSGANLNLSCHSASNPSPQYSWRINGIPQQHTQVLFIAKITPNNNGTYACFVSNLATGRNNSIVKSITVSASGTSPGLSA
Procedure: In order to detect whether the antibody preferentially binds to CEA present on the surface of cell membrane in the presence of sCEA (as shown in SEQ ID NO:1), the inventors pre-incubated a gradient of diluted antibodies with a certain concentration of sCEA (5 μg/ml) for 30 min, then MKN45 cells were collected (human gastric cancer cells, Nanjing Kebai Biotechnology Co., Ltd., Cat #CBP60488) and loaded into 96-well plate. The gradient of diluted antibodies as well as the mixture of pre-incubated antibody and sCEA were separately added to each well, incubated at 4° C. for 60 min and centrifuged to remove the supernatant. Pre-cooled PBS containing a final concentration of 10% FBS was added to wash the cells, repeated twice. 50 μl of 1:200 diluted secondary antibody Alexa Fluor@488 goat anti-human IgG (H+L) (Lifetechologies, Cat #A11013) was added, incubated at 4° C. in dark for 45 min and centrifuged to remove the supernatant. 250 μl of pre-cooled PBS containing a final concentration of 10% FBS was added to wash the cells; repeated twice. 100 μl of pre-cooled PBS was added to each well for resuspension. Flow cytometer (FACS) was used for detection to obtain the fluorescence signal value.

Q: Which “maximum fluorescence signal ratio (without sCEA v.s. with sCEA)” value does the source give for B1 here?
A: 1.43

Q: For B2, which “maximum fluorescence signal ratio (without sCEA v.s. with sCEA)” value is on record?
A: 1.02

Q: Which “maximum fluorescence signal ratio (without sCEA v.s. with sCEA)” value does the source give for B3 here?
A: 1.08
